In article PMC314469, “Protein Interaction Networks by Proteome Peptide Scanning” (PLoS Biology, 2004):

T1: amphyphisin SH3 (AMPH_HUMAN), P49418
T1 chain: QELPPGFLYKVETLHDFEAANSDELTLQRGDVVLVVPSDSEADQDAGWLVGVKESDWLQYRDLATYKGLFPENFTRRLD


How the values were obtained:
[1] = biological target: T1, amphyphisin SH3 (AMPH_HUMAN), P49418; assay: SPOT array
[2] = biological target: endophilin SH3 (SH3G2_HUMAN), Q99962; assay: SPOT array

normalised SPOT signal, Boehringer light units (BLU); mean over the file's lines of this peptide [1]	normalised SPOT signal, Boehringer light units (BLU); mean over the file's lines of this peptide [2]	Binder
54.9	537	LLFSLRRPSSTVTM [Q96SW7 100-113]
856	3870	APPPPSRPPQPRPG [Q9NRK3 42-56]
188	80.4	LLEPPERPYRDREP [Q9HCM7 689-702]
28.6	568	LLSWIKRPSQRALR [Q9P145 28-41]
29.9	6.9	LLEQILRPSKFLTY [Q9P0V3 740-753]
121	192	LKGIFTRPSKLTRK [P30622 114-127]
38.4	300	LGLSFRRPNVITLL [Q9ULA1 146-159]
1740	3730	LIRFLPRPIRQQLL [Q12789 943-956]
269	14800	LGRLPSRPPLPGSG [Q9Y570 9-23]
46.5	169	LIQELRRPKYSIYF [Q15715 82-95]
5.8	55.3	LKEILKRPVDPIRA [O43630 494-507]
193	128	LHVQLNRPNKRNAM [Q13011 68-81]
49.4	596	LHLVIRRPLETHPG [Q9H6Y5 142-155]
28.8	69	LKVQLKRPKDANRP [Q9NR84 149-162]
1650	315	LGLRLSRPYRLAAG [O14927 499-512]
336	614	LLGPFRRPTTQLRA [P25100 499-512]

normalised SPOT signal, Boehringer light units (BLU); mean over the file's lines of this peptide [1]	normalised SPOT signal, Boehringer light units (BLU); mean over the file's lines of this peptide [2]	Binder
4490	2280	APPLPVRPPKTSPG [Q96FN5 451-465]
45.3	268	LLGKPKRPRSAYNV [Q00059 151-164]
16800	34600	LGQKPQRPRRPASP [P07360 19-32]
1060	3500	LILPPPRPPLAVTS [O60241 813-827]
23.4	45.5	LGLPPGKPPSSSPL [Q9H7S9 349-363]
33.1	145	APPELRRPSHLHTS [Q8WU02 149-162]
65.2	41.8	LGPVPHRPPFEPGS [P54259 848-862]
6100	224	LIRTFQRPDRVELM [Q9UMF0 113-126]
2610	1090	LKVWPPRPGRWPSF [Q9NQQ2 431-444]
33.4	81.8	LGPVPVRPPPGPEL [Q9Y5L9 821-835]
218	246	LHGRPYRPPSPPPP [O75593 148-162]
41.8	47.1	LLDTIKRPALQGLS [Q9P2D8 4-17]
90.2	87.4	LLIIISRPARLLES [O60307 271-284]
3510	391	LHESFPRPKRVSKD [P42568 55-68]
238	3650	LKAPPARPVKGAYR [Q99760 384-397]
